This note sets out measurements from publication PMC9063426, “MAP kinases differentially bind and phosphorylate NOS3 via two unique NOS3 sites” (FEBS Open Bio, 2022).

One assay deals with NOS1. Description: BLI binding of MAP kinases to NOS1. Also noted: species or system bovine. The settings on record: purified active JNK1α1.
For assay [1], the system named is NOS3. In words: Oxyhemoglobin assay of NO production by kinase-treated NOS3. Type of assay: biochemical, human. The following applies: oxyHb assay, 2.5 µM NOS3 with ERK2 14 nM (N = 10), p38α 14 nM (N = 4), JNK1α1-GST 63 nM (N = 3) or PKA 14 nM (N = 4), 30 min; versus untreated NOS3. On the procedure: (§1) Active (HIS‐NOS3) was incubated alone or with individual kinases (ERK2, p38α, JNK1α1, and PKA) in 100 µL reaction buffer (20 mM HEPES, 0.5 mM DTT, 5 mM MgCl2, 0.5 mM ATP, and 10% glycerol at a pH of 7.4). The reactions were performed at 22‐25 °C for up to 1 h, and for the examination of nitric oxide activity, samples were incubated on ice for the immediate detection of NO via the oxyhemoglobin to methemoglobin assay (see below). For immunoblotting analysis to examine phosphorylation, kinase samples were quenched with 2× sample buffer spiked with 25 mM DTT and heated to 95 °C for 5 min. Boiled samples (at equal volumes) were electrophoresed and transferred to PDVF for immunoblot staining.
The oxyhemoglobin assay (oxyHb assay) is a spectroscopic method that measures the oxidative reaction of oxyhemoglobin at 421 nm (oxyHb) and methemoglobin (metHb) at 401 nm. Kinase assay reactions quenched on ice were used to measure NO synthesis and consumption. All oxyHb reactions were performed at 25 °C in a BioTek 96‐well UV‐visible spectrophotometer. […] Absorbance at 401 nm and 421 nm were read for 1 m at 15‐s intervals. […] Measurements were recorded for 10 min at 15‐s intervals.
To calculate NOS3 activity, the change in absorbance/unit time was divided by the extinction coefficient (ε401‐421 = 77 200 M ^−1cm^−1 (ε401 = 38 600 M ^−1cm^−1)). […]

Assay [2] deals with NOS3. Description: In vitro kinase assay with NOS3, phospho-specific immunoblotting. Type of assay: biochemical, human. The following applies: active kinases with NOS3, 5 and 60 min, immunoblot with anti-pS114. On the procedure:
as §1
All samples were loaded at equal volumes on 3–8% gradient tris‐acetate gels. All gels were transferred to PVDF membranes and transferred for either 2 h at 40V or for 20V overnight. Membranes were blocked with one block (Li‐Cor Biosciences) for 30 m and incubated with respective antibodies (at manufacturers recommend concentrations for immunoblotting, 1 : 500 for the anti‐pS600‐NOS3) overnight at 4 °C. Blots were brought to RT for 30 m and washed 3× with 1X TBST for 10 m, probed with a fluorometric secondary antibody (Li‐Cor IRDye®) for 1 h, and washed before visualizing with a Li‐Cor Odyssey.
A general note: A western blot detects proteins with antibodies after separation by electrophoresis.

Assay [3] relates to NOS3. In words: TCSPC fluorescence lifetime, conformation of NOS3. The settings on record: FMN excited at 473 nm, detected at 525 nm; NOS3 holoenzyme. As to the method:
Time‐resolved intensity decays were recorded using time‐correlated single‐photon counting fluorescence lifetime spectrometry (TCSPC FLT) to determine whether phosphorylation by JNK1α1 changes the conformation of NOS3.

The next assay concerns the target NOS3 (bovine). Description: BLI binding of JNK1α1 to full-length NOS3. On the procedure: Biolayer interferometry (BLI) experiments were performed on a FortéBio (Menlo Park, CA) Octet QK biosensor using streptavidin (SA) sensors. Assays were performed in opaque 96‐well microplates at 25 °C. All volumes were 200 μL. Active GST‐JNK1α1 (SignalChem) was biotinylated by amine crosslinking to NHS‐LC‐LC‐biotin (succinimidyl‐6‐[biotinamido]‐6‐hexanamidohexanoate) (Thermo Fisher, Waltham, MA, USA). Reactions were performed at a 5 : 1 molar ratio of biotin to protein for 30 min at room temperature followed by separation of protein from free biotin by passage over a desalting column. Biotinylated JNK1α1 was loaded onto sensors for 300 s, which was sufficient to saturate them. Baseline was established by dipping sensors into binding buffer (50 mM Tris, pH 7.4, 10 mM NaCl, 10% glycerol, 0.01% Tween‐20) prior to moving sensors to wells containing varying concentrations of serially diluted NOS3 in the same buffer. Association was measured for 300 s, after which sensors were moved to wells containing buffer only and dissociation was monitored for another 300 s. […] Total binding was used for analysis as nonspecific binding measured by exposing sensors without ligand to analyte was negligible at all NOS3 concentrations used; that is, total binding was effectively specific binding due to very low nonspecific binding. […]
For orientation: In BLI a coated tip is dipped into the sample, and binding shifts an interference pattern.

Entries after “also recorded” stand apart in the source; their conditions may differ.

B1: mitogen‐activated protein kinase 8 (protein)
chain: MSRSKRDNNFYSVEIGDSTFTVLKRYQNLKPIGSGAQGIVCAAYDAILERNVAIKKLSRPFQNQTHAKRAYRELVLMKCVNHKNIIGLLNVFTPQKSLEEFQDVYIVMELMDANLCQVIQMELDHERMSYLLYQMLCGIKHLHSAGIIHRDLKPSNIVVKSDCTLKILDFGLARTAGTSFMMTPYVVTRYYRAPEVILGMGYKENVDLWSVGCIMGEMVCHKILFPGRDYIDQWNKVIEQLGTPCPEFMKKLQPTVRTYVENRPKYAGYSFEKLFPDVLFPADSEHNKLKASQARDLLSKMLVIDASKRISVDEALQHPYINVWYDPSEAEAPPPKIPDKQLDEREHTIEEWKELIYKEVMDLEERTKNGVIRGQPSPLAQVQQ
modifications: active (phosphorylated) form; biotinylated by amine crosslinking to NHS-LC-LC-biotin, 5 : 1 molar ratio of biotin to protein; left off: GST, end not stated, kept
notes: c-Jun N-terminal kinase
For B1, the “binding to NOS1” value in the assay on NOS1 was “No evidence of JNK1α1 binding to NOS1 beyond nonspecific binding; also recorded: no binding could be detected”. For the same molecule, the “NO production / NOS3 activity” value in the assay on NOS3 [1] is recorded as “do not significantly change NO production; also recorded: did not alter in vitro NOS3 activity”. For the same molecule, the “phosphorylation of NOS3 at S114” value in the assay with NOS3 [2] is reported as “predominantly phosphorylated NOS3 at S114; also recorded: phosphorylates S114; also recorded: easily detected when compared to ERK2”. Also, the “conformation of NOS3 (fluorescence decay)” value in the assay on NOS3 [3] was “no significant change in conformation; also recorded: did not differ significantly from that of unphosphorylated NOS3; also recorded: did not meaningfully change the confirmation of NOS3”. Also, the Kd (as a rule, the equilibrium constant for the complex coming apart) on NOS3 (bovine) (400 nM trace eliminated from fit) turned out to be 18 nM. For the same molecule, the kon (as a rule, the second-order rate constant of association) in the assay with NOS3 (bovine) (BLI, active GST-JNK1α1 ligand, NOS3 analyte, 25 °C, pH 7.4, global one-state fit) amounted to 4106 M⁻¹ s⁻¹.
